Data: paper PMC7057996, “Human glutaredoxin-1 can transfer copper to isolated metal binding domains of the P1B-type ATPase, ATP7B” (Scientific Reports, 2020)

How the values were obtained:
[1] = biological target: T1, ATP7B metal binding domains 5-6 (human, UniProt P35670 486-633); assay: cell-based or functional assay
T1 sequence (looked up): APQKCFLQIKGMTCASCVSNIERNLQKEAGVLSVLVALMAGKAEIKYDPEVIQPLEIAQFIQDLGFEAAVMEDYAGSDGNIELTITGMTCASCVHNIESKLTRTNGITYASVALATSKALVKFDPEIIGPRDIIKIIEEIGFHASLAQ

[2] = biological target: T1, ATP7B metal binding domains 5-6; assay: NMR titration; 15N-1H HSQC of apo-15N-hGrx1 (320-350 uM) titrated with unlabelled apo-Atox1 or apo-WLN5-6 to 2.0:1 (partner:hGrx1); no Cu; 4 °C; 10 mM MES/Na, 50 mM NaCl, 1 mM TCEP, pH 6.0; intensity changes of the Cys26 and Thr69 peaks fitted to a 1:1 binding model; settings: both partners purified

B1: human glutaredoxin-1 (enzyme)
chain: MAQEFVNCKIQPGKVVVFIKPTCPYCRRAQEILSQLPIKQGLLEFVDITATNHTNEIQDYLQQLTGARTVPRVFIGKDCIGGCSDLVSLQQSGELLTRLKQIGALQ
notes: human glutaredoxin-1 (hGrx1), UniProtKB P35754; printed as a 106-residue construct (excluding non-native residues left at the N-terminus by cleavage); 15N-labelled (or 13C/15N-labelled) for NMR; used as apo protein and loaded with Cu(I) (1:1); Non-native residues of the PreScission site remain at the N-terminus; also called hGrx1; Grx1; source: E. coli BL21 Codon Plus (DE3), purified (glutathione …)
Cu(I) distribution WLN5-6:hGrx1/Atox1 after incubation of Cu(I)-hGrx1 with apo-Atox1 and apo-WLN5-6 at 1:1:1, SEC-ICP-MS [1]: ~9 ratio WLN5-6:hGrx1/Atox1 | Kd [2]: 7 ± 4 µM
